Source: patent US20200157212A1 (Pfizer, published 2020)

T1: Terbium (Tb) labeled-SNAP tagged ROBO2 expressed on HEK293 cells (Homo sapiens (Human), UniProt Q9HCK4 22-1378, terbium label on the SNAP tag)
T1 construct: also called Tb-labeled ROBO2 cells; ROBO2 expressing cells; not shown: SNAP tag
T1 sequence: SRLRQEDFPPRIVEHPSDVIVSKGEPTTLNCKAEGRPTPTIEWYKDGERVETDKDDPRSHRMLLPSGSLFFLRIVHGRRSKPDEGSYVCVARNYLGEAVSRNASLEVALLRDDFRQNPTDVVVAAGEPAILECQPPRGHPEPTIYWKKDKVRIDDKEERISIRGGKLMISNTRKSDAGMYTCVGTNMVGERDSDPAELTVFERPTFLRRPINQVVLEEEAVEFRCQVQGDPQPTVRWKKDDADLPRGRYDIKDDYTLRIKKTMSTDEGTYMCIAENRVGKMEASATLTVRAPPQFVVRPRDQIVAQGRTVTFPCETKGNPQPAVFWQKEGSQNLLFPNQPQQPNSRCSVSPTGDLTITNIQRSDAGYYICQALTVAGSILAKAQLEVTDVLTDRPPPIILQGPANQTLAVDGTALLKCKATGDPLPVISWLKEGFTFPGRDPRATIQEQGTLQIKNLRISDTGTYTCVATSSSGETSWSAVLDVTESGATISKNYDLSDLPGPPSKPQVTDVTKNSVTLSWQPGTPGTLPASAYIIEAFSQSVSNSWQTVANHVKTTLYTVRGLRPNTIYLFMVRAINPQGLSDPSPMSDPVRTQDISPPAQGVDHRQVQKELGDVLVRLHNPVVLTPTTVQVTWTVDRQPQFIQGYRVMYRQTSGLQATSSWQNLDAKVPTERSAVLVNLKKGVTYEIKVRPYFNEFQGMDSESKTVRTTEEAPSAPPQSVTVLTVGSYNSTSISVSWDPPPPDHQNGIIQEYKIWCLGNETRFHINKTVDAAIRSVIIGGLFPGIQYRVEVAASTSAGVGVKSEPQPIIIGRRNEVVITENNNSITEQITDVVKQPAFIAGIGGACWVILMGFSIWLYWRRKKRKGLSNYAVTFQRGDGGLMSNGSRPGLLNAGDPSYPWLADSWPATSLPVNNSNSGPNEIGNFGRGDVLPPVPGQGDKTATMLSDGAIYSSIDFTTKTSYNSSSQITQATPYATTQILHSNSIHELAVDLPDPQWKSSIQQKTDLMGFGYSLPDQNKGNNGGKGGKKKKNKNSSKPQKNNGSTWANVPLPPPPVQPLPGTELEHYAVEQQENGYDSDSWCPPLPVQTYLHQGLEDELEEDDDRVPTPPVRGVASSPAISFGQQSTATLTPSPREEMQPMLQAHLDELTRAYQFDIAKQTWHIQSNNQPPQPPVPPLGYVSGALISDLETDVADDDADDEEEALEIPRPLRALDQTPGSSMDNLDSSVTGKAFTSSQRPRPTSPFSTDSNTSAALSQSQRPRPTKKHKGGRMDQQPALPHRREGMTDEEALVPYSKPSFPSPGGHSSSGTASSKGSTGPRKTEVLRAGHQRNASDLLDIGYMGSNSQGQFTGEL

T2: Human ROBO2 overexpressed on HEK293 cells (human, UniProt Q9HCK4 22-1378)
T2 construct: also called ROBO2 cells; native ROBO2
T2 sequence: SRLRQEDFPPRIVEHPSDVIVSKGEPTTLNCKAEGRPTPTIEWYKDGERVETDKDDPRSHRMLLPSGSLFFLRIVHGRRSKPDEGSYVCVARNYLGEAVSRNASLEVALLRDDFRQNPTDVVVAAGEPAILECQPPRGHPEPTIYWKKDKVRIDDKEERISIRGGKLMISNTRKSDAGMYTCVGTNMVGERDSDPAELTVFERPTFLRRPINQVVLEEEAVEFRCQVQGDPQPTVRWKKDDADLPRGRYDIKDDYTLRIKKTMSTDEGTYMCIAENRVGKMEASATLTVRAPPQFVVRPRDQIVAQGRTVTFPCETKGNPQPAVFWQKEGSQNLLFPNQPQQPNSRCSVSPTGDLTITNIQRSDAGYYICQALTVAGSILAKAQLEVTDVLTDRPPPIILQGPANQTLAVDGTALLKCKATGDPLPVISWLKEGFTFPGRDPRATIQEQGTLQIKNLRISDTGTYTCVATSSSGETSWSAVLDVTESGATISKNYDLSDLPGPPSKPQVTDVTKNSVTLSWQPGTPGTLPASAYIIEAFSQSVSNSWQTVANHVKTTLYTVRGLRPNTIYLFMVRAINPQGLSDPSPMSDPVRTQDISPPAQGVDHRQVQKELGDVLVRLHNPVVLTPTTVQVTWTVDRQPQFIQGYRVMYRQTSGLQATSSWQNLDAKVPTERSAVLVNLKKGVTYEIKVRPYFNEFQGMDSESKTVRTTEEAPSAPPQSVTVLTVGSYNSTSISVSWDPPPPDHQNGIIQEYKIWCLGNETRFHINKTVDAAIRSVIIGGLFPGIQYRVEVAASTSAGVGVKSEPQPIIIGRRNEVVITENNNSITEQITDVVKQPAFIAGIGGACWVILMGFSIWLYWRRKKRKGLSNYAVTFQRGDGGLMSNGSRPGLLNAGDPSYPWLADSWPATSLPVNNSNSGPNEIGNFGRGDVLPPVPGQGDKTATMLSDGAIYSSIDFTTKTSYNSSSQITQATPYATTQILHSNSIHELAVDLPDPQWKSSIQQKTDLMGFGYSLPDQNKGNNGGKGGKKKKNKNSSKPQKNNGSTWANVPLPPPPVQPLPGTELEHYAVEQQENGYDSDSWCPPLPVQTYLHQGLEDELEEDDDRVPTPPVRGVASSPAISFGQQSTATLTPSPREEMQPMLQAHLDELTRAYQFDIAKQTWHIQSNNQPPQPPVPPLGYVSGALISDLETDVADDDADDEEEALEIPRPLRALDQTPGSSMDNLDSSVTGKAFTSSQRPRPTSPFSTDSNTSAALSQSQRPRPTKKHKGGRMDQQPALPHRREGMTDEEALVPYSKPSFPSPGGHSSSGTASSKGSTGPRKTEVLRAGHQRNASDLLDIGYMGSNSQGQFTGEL


How the values were obtained:
[1] = target: T1, Terbium (Tb) labeled-SNAP tagged ROBO2 …; test: HTRF, 5 nM d2-SLIT2-N on Tb-SNAP-ROBO2 HEK293 cells, 1 nM antibody
Procedure: (§1) In this assay, terbium (Tb) labeled-SNAP tagged ROBO2 expressing HEK293 cells were incubated with 5 nM d2-labeled SLIT-2N in the presence of 1 nM anti-ROBO2 antibodies for 1 hour. After incubation, fluorescence at 665 nm and 620 nm was measured on an Envision multilabel plate reader. […] Maximal signal was defined as the HTRF ratio of Tb-labeled ROBO2 cells with d2-labeled SLIT2-N in the absence of antibody, the minimum signal was defined as the HTRF ratio of Tb-labeled ROBO2 expressing HEK293 cells only. One nanomolar (nM) parental antibody, 93H2, was unable to block the HTRF assay, therefore this concentration was selected to identify clones with a higher affinity than 93H2 (Table 2, HTRF Ratio column). […] Antibodies derived from chain (Abcs series) or CDR shuffling (CTIR-2 series) were evaluated in 11-point, 5-fold dilution series with a top concentration of 1500 nM (Table 2 HTRF IC₅₀).
(§2) HTRF assays were run with 5 nM d2-labeled SLIT2-N and antibodies were added at 1 nM. […] Antibodies derived from chain (Abcs series) or CDR shuffling (CTIR-2 series) were evaluated in 11-point, 5-fold dilution series with a top concentration of 1500 nM, N.T. = not tested; ^cFold selectivity was calculated as Geometric Mean Fluorescent Intensity (Geo MFI) of ROBO2/Geo MFI of ROBO1 binding.

[2] = target: T2, Human ROBO2 overexpressed on HEK293 …; test: flow cytometry on HEK293 cells overexpressing human ROBO2; N.B. = No binding to ROBO2
Procedure: The parental 93H2 antibody was highly ROBO2 specific, therefore affinity matured antibodies with single point neutralizing activity were screened by flow cytometry to ensure ROBO2 selectivity had been maintained. […] Binding of the antibodies was detected using a secondary fluorochrome conjugated anti-human IgG F(ab′)₂ antibody and samples were analyzed on a Fortessa cytometer (BD Biosciences). The fold ROBO2 selectivity was calculated as the geometric mean fluorescence intensity (Geo MFI) with ROBO2 cells/Geo MFI with ROBO1 cells. A fold change higher than 3 was considered to be ROBO2 specific (Table 2, Fold Selectivity). Some affinity matured clones had increased ROBO1 reactivity, for example Abcs 55, CTI-R2-10 and CTIR2-13.
Table 2 is a summary of assays used to screen antibodies against ROBO1 and/or ROBO2 to identify an antibody that specifically recognized ROBO2 but not ROBO1 with high affinity. […] Full dose curves were performed in the same assay for select antibodies. Recognition of native, surface expressed protein and ROBO2 selectivity was evaluated by flow cytometry. […] Anything with a value of greater than 3 was deemed to be selective for ROBO2. Outcomes of the various screening assays conducted for each antibody are highlighted in the final column.

[3] = target: T1, Terbium (Tb) labeled-SNAP tagged ROBO2 …; test: HTRF competition, competitor d2-SLIT2-N, ROBO2 HEK293 cells
Procedure: as §1, with “Antibodies generated as a result of the affinity maturation campaign were screened by numerous assays for neutralization of SLIT2-N binding, selective binding to ROBO2 over ROBO1, and inhibition of SLIT2-N functional activity (see Table 2). A ROBO2-SLIT2-N homogenous time resolved fluorescence (HTRF) assay was used to identify antibodies that were capable of blocking SLIT2-N binding to ROBO2. In” for “In”

[4] = target: T2, Human ROBO2 overexpressed on HEK293 …; test: flow cytometry, Geo MFI ROBO2/ROBO1 HEK293 cells, 0.1 µg/ml
Procedure: Binding of the antibodies was detected using a secondary fluorochrome conjugated anti-human IgG F(ab′)₂ antibody and samples were analyzed on a Fortessa cytometer (BD Biosciences). The fold ROBO2 selectivity was calculated as the geometric mean fluorescence intensity (Geo MFI) with ROBO2 cells/Geo MFI with ROBO1 cells. A fold change higher than 3 was considered to be ROBO2 specific (Table 2, Fold Selectivity). Some affinity matured clones had increased ROBO1 reactivity, for example Abcs 55, CTI-R2-10 and CTIR2-13.
as §2, with “binding. […] Outcomes: results are listed in order of assays listed in the table (left to right), I.A. = Improved Affinity” for “binding.”

Row | Binder | HTRF Ratio [1] | binding result [2] | IC50 [3] [nM] | Fold Selectivity for ROBO2/ROBO1 [4] [fold]
1 | Ab1 (antibody, human IgG1, kappa, V domains shown, full-length human IgG) VH: EVQLVQSGAEVKKPGASVKVSCKASGYTFTGYDMHWVRQAPGQGLEWMGWINPNSGATNFPQKFQGRVTMTRDTSITTAYMDLSRLRSDDTAVYYCARESGDDAFDIWGQGTMVTVSS VL: DIVMTQSPSSLSASVGDRVTITCRASQKISSYLNWYQQKPGKAPKLLIYAASSLQSGVPSRFSGSGSGTDFTLTISSLQPEDFATYYCQQSYSTSFGGGTKVEIKR | 14000 | no binding (tested: 0.1 µg/ml) | – | –
2 | Ab22 (antibody, human IgG1, kappa, V domains shown, full-length human IgG) VH: EVQLVQSGAEVKKPGASVKVSCKASGYTFTGYYMHWVRQAPGQGLEWMGWINPRSGATNFPQKFQGRVTMTRDTSITTAYMDLSRLRSDDTAVYYCARESGDDAFDIWGQGTMVTVSS VL: DIVMTQSPSSLSASVGDRVTITCRASQSISSYLNWYQQKPGKAPKLLIYAASSLQYGVPSRFSGSGSGTDFTLTISSLQPEDFATYYCQQSYSTSFGGGTKVEIKR | 5730 | – | 0.229 | 67.4
3 | Ab32 (antibody, human IgG1, kappa, V domains shown, full-length human IgG) VH: EVQLVQSGAEVKKPGASVKVSCKASGYTFTGYYMHWVRQAPGQGLEWMGAIDPKLGITIFPQKFQGRVTMTRDTSITTAYMDLSRLRSDDTAVYYCARESGDDAFDIWGQGTMVTVSS VL: not shown | 6000 | – | 0.234 | 90.3
4 | Ab58 (antibody, human IgG1, kappa, V domains shown, full-length human IgG) VH: EVQLVQSGAEVKKPGASVKVSCKASGYTFTGYYMHWVRQAPGQGLEWMGWINPKDGDTEFPQKFQGRVTMTRDTSITTAYMDLSRLRSDDTAVYYCARESGDDAFDIWGQGTMVTVSS VL: not shown | 5570 | – | 0.282 | 21.8
5 | Ab83 (antibody, human IgG1, kappa, V domains shown, full-length human IgG) VH: EVQLVQSGAEVKKPGASVKVSCKASGYTFTGYYMHWVRQAPGQGLEWMGWINPRNGITSFPQKFQGRVTMTRDTSITTAYMDLSRLRSDDTAVYYCARESGDDAFDIWGQGTMVTVSS VL: not shown | 4770 | – | 0.437 | 40.6
6 | Ab40 (antibody, human IgG1, kappa, V domains shown, full-length human IgG) VH: EVQLVQSGAEVKKPGASVKVSCKASGYTFTGYYMHWVRQAPGQGLEWMGWINPNSGATNFPQKFQGRVTMTRDTSITTAYMDLSRLRSDDTAVYYCARESGDDAFDIWGQGTMVTVSS VL: DIVMTQSPSSLSASVGDRVTITCRASQSISSYLNWYQQKPGKAPKLLIYAASSLQSGVPSRFSGSGSGTDFTLTISSLQPEDFATYYCQQSLELGFGGGTKVEIKR | 7430 | – | 0.728 | > 100

Continued by falling IC50 [3], values first:

Row | HTRF Ratio [1] | binding result [2] | IC50 [3] [nM] | Fold Selectivity for ROBO2/ROBO1 [4] [fold] | Binder
7 | 7300 | – | 0.174 | 39.2 | Ab112 (antibody, human IgG1, kappa, V domains shown, full-length human IgG) VH: EVQLVQSGAEVKKPGASVKVSCKASGYTFTGYYMHWVRQAPGQGLEWMGWINPNSGATNFPQKFQGRVTMTRDTSITTAYMDLSRLRSDDTAVYYCARESGDDAFDIWGQGTMVTVSS VL: DIVMTQSPSSLSASVGDRVTITCRASQSISSYLNWYQQKPGKAPKLLIYAASSLQSGVPSRFSGSGSGTDFTLTISSLQPEDFATYYCQQSVGLSFGGGTKVEIKR
8 | 5710 | – | 0.109 | > 100 | Ab46 (antibody, human IgG1, kappa, V domains shown, full-length human IgG) VH: EVQLVQSGAEVKKPGASVKVSCKASGYTFTGYYMHWVRQAPGQGLEWMGAIDPKHGFTIFPQKFQGRVTMTRDTSITTAYMDLSRLRSDDTAVYYCARESGDDAFDIWGQGTMVTVSS VL: not shown
9 | 7730 | – | 0.097 | > 100 | Ab29 (antibody, human IgG1, kappa, V domains shown, full-length human IgG) VH: EVQLVQSGAEVKKPGASVKVSCKASGYTFTGYYMHWVRQAPGQGLEWMGAIDPKSGTTMFPQKFQGRVTMTRDTSITTAYMDLSRLRSDDTAVYYCARESGDDAFDIWGQGTMVTVSS VL: not shown
